The source of these data is patent US20220002701A1 (CHILDREN S MEDICAL CENTER, published 2022).

Where two headings read alike, the source gives them in different places.

Test [1] has as its target T1, stabilized soluble SARS-CoV-2 S ectodomain trimer in the pre-fusion conformation (SARS-CoV-2; bacteriophage T4, UniProt P0DTC2 14-1208; P10104 458-484).
T1 construct: also called soluble S trimer; S trimer

Test [2] deals with T1, stabilized soluble SARS-CoV-2 S …. The source holds these as a separate data set.

B1: ACE2615-foldon-K353Y (receptor)
chain: QSTIEEQAKTFLDKFNHEAEDLFYQSSLASWNYNTNITEENVQNMNNAGDKWSAFLKEQSTLAQMYPLQEIQNLTVKLQLQALQQNGSSVLSEDKSKRLNTILNTMSTIYSTGKVCNPDNPQECLLLEPGLNEIMANSLDYNERLWAWESWRSEVGKQLRPLYEEYVVLKNEMARANHYEDYGDYWRGDYEVNGVDGYDYSRGQLIEDVEHTFEEIKPLYEHLHAYVRAKLMNAYPSYISPIGCLPAHLLGDMWGRFWTNLYSLTVPFGQKPNIDVTDAMVDQAWDAQRIFKEAEKFFVSVGLPNMTQGFWENSMLTDPGNVQKAVCHPTAWDLGYGDFRILMCTKVTMDDFLTAHHEMGHIQYDMAYAAQPFLLRNGANEGFHEAVGEIMSLSAATPKHLKSIGLLSPDFQEDNETEINFLLKQALTIVGTLPFTYMLEKWRWMVFKGEIPKDQWMKKWWEMKREIVGVVEPVPHDETYCDPASLFHVSNDYSFIRYYTRTLYQFQFQEALCQAAKHEGPLHKCDISNSTEAGQKLFNMLRLGKSEPWTLALENVVGAKNMNVRPLLNYFEPLFTWLKDQNKNSFVGWSTDWSPYADSGGGGSGGYIPEAPRDGQAYVRKDGEWVLLSTFLGGSHHHHHH
notes: also called Sol-ACE2-Foldon-K353Y
The term Kd denotes the free concentration of one partner at which half of the binding sites on the other are occupied at equilibrium, for simple one-to-one binding. Lower therefore signals tighter binding. By koff is commonly meant a measure of how fast the partners let go of each other. Lower therefore signals slow dissociation. A word on the kon: it is the second-order rate constant of association. B1 gave a Kd in test [1] of 0.0323 µM. In test [2], the Kd is 0.0323 µM, the ka2 came to 0.397, the kdis2 was 0.00545 and the koff came to 0.00322 s⁻¹. Moreover, the on-rate (kon) in test [2] was determined as 99600 M⁻¹ s⁻¹.
